Data reported in patent US7407766.
pKd: −log10 of the molar value.

Target: full-length mouse Plexin-A1 protein (aa1 to 1894) (mouse) (UniProt P70206)
Assay: AP activity bound to Plexin-A1 expressing L cells, non-specific binding to parent L cells subtracted; Scatchard plot

Chain of full-length mouse Plexin-A1 protein (aa1 to 1894) (mouse) (P70206 28-1894 limits assumed): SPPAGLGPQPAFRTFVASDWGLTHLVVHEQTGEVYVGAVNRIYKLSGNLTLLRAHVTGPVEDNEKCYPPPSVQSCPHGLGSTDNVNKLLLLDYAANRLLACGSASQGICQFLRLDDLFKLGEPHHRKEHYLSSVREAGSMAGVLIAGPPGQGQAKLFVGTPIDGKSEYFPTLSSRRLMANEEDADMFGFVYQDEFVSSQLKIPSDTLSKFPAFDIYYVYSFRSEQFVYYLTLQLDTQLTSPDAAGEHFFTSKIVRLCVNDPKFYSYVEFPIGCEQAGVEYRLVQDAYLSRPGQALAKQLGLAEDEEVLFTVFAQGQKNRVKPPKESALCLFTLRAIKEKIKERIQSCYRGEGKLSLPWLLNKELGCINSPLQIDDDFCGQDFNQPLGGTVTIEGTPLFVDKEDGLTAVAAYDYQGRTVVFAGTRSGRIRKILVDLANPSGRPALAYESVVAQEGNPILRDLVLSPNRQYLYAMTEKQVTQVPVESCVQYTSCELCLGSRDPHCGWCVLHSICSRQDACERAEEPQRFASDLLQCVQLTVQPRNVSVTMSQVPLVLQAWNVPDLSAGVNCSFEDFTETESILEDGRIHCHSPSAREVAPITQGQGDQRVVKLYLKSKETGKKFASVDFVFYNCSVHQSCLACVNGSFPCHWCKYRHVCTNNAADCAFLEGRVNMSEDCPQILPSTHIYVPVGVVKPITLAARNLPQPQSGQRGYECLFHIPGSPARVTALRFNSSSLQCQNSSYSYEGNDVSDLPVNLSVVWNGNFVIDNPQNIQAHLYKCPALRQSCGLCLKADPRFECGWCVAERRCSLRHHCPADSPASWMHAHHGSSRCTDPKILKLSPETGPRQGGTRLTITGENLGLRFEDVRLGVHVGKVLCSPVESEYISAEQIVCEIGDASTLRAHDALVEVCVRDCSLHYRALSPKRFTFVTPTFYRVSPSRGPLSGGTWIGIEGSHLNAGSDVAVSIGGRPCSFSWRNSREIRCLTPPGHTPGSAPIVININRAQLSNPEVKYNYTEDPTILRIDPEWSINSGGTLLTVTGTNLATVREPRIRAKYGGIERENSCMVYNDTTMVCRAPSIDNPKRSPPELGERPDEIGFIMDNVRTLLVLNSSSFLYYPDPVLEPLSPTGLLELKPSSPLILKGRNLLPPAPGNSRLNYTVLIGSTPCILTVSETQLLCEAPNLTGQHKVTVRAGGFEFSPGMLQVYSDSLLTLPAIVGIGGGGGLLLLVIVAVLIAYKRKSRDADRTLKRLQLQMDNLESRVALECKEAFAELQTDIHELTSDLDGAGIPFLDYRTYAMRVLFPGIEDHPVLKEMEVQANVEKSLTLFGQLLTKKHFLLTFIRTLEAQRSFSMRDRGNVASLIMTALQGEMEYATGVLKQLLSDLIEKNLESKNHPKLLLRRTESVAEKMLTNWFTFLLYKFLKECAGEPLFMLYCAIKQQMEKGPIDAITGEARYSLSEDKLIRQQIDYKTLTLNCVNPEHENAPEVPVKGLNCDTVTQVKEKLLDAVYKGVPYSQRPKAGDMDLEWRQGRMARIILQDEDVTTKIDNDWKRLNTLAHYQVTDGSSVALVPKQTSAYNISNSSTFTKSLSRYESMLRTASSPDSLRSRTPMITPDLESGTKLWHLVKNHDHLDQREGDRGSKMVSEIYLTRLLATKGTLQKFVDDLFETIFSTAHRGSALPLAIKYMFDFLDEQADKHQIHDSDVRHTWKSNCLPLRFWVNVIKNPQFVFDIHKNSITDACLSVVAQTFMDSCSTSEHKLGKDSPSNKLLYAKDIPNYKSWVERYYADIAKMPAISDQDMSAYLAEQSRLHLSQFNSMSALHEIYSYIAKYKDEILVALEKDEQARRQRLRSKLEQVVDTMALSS

Substance “Sema6C-alkaline phosphatase fusion protein (Sema6C-S-AP) (from UniProt Q9WTL3 24-599; P05187 23-511) (ligand)” has a pKd of 7.78.
